Where “and” joins values, the source holds several entries; their conditions need not be identical. Equal entries are not always repeated. Entries after “also recorded” stand apart in the source; their conditions may differ.
Key:
[1] = system: hyaluronan present in the circulation; assay: Plasma HA and catabolites (disaccharide assay) in patients; type: in vivo, human
Method: This Example describes a method for the determination of the HA-disaccharide content in plasma. The method employs the hydrolysis of HA with Chondroitinase ABC to release the HA-disaccharides, derivatize them with 2-amino acridone (AMAC) and analyze them on a reverse-phase HPLC coupled with fluorescence detection. Quantitation of the HA-disaccharides is accomplished by comparison with HA-disaccharide standards.
Next, the sample was hydrolyzed. The sample (e.g. plasma) was prepared by taking approximately 100 μg of protein in a polypropylene tube and adjusting the volume to 340 μl with water. A matrix blank also was prepared by taking dilution buffer (1.59 g HEPES, 5.07 g NaCl, 1800 mL water, pH 7.0) equal to the volume of the sample and adjusting the volume to 340 μl. Hydrolysis of the samples and matrix blank were effected by adding 60 μl of TFA to the sample tube and matrix blank tube and the contents were mix and incubated at 100° C. for 4 hours. The vials were allowed to cool to room temperature. The vials were evaporated to dryness using a speed vac. Then, 300 μl of water was added to each tube and vortexed to resuspend the samples. […]
The enzymatic activity of PEGPH20 was measured by monitoring concentrations of hyaluronan present in the circulation.

[2] = Dexamethasone premedication and PEGPH20-induced musculoskeletal observations
Method: In one study, four naïve male beagle dogs were orally dosed with 4 mg/dose dexamethasone twice a day on the day of PEGPH20 administration. The first dexamethasone dose was given orally (PO) immediately before PEGPH20 intravenous (IV) administration. The second dexamethasone dose was given orally ˜8 hours later. On day 1, one dog was dosed with 3040 U/kg (0.08 mg/kg) PEGPH20 after Dexamethasone. Twenty four hours later (day 2), a second dog was dosed with 5700 U/kg (0.15 mg/kg) PEGPH20 after Dexamethasone. Twenty four hours later (day 3), a third dog was dosed with 11400 U/kg (0.3 mg/kg) PEGPH20 after Dexamethasone. Twenty four hours later (day 4), a fourth dog was dosed with 38000 U/kg (1.0 mg/kg) PEGPH20 after Dexamethasone. Blood was collected pre-PEGPH20 administration, and 0.5 hr, 4 h and 24 h post-PEGPH20 administration.
PEGPH20 was administered IV with a 5 mL bolus injection via percutaneous needle puncture of the cephalic vein on study Days 1, 2 and/or 5. Dexamethasone was administered orally immediately before the PEGPH20 injection and approximately 8 hours post injection. All animals were re-dosed 3 days after the first injection except those in the PEGPH20 alone treatment group, which were not re-dosed.
Animals treated with only one dose of PEGPH20 were evaluated at 96 hours, 120 hours, 6, 7, 8, and 9 days post-dose.

[3] = Plasma pharmacokinetics of PEGPH20 (hyaluronidase activity) in patients
Method: Plasma samples were stored frozen, and concentrations of PEGPH20 were determined by measuring hyaluronidase activity using a modified turbidimetric assay as described in Example 4. The USP turbidimetirc method used for the determination of hyaluronidase activity awas based on the formation of an insoluble precipitate that occurs when HA binds with acidified serum. PEGPH20 concentrations were expressed as units of hyaluronidase activity (U/mL) as interpolated from a calibration curve. Activity was reported to the nearest 1 U/mL, and the analytical methods were applicable for measuring plasma hyaluronidase concentrations as low as 0.3125 U/mL.

[4] = system: pericellular hyaluronan; assay: Hyaluronan staining of PC3 tumor sections; type: in vivo, human (xenograft in athymic male nude mice); conditions: Day 14, dexamethasone low or high dose, PEGPH20 4.5 mg/kg, or both
Method: (§1) Tumor tissues from the two satellite mice from all 6 treatment groups in Example 9A.1 above, were harvested by tissue biopsy on Day 14 and stained for the presence of hyaluronan. Tumor biopsies were fixed in 10% NBF for 48 hours, embedded in paraffin, and sectioned. Samples were probed for hyaluronan using a biotinylated HA-binding protein (HABP), then probed with FITC-labeled streptavidin for detection. The cell nuclei were counterstained with DAPI (4′,6-diamidino-2-phenylindole) reagent. Micrographs were then captured using a Zeiss Microscope (Thornwood, N.Y.) coupled with the Spot imaging program (Diagnostic Instruments, Inc).
(§2) Hyaluronan expression in the sections was evaluated by the level of green fluorescent intensity in the sections.

[5] = Tolerability / musculoskeletal response to PEGPH20 in beagle dogs; type: in vivo, beagle dog
[6] = system: tissue HA (hyaluronan); assay: Histochemical HA staining of skeletal muscle and skin biopsies; type: in vivo, beagle dog
Method: Twenty-four hours post-dose (Day 60), skeletal muscle biopsies were taken from each of the three treated dogs and also from an untreated control beagle dog. The medial semitendinosis/medial membranosus muscle(s) were targeted for biopsies. The area of the biopsy was shaved using electric clippers and scrubbed using either Chlorhexidine or Povidone-Iodine solutions. Bupivacaine or Lidocaine (2-3 mg/kg) was injected subcutaneously (SC) in the area of the biopsy for local analgesia. The muscle biopsy was collected using a 2-mm-diameter biopsy needle. A gauze sponge was applied with slight pressure to stop any bleeding. Metacam (meloxicam) 0.2 mg/kg was injected SC to control pain. Biopsy samples were placed in Eppendorf tubes or equivalent with approximately 200 μL 10% neutral-buffered formalin (NBF).
Biopsied tissue samples were stained for tissue HA using a highly specific histochemical staining method. […] The cell nuclei were counterstained with DAPI (4′,6-diamidino-2-phenylindole) reagent. Micrographs were then captured using a Zeiss Microscope (Thornwood, N.Y.) coupled with the Spot imaging program (Diagnostic Instruments, Inc).
The medial semitendinosis/medial membranosus muscle(s) were targeted for biopsies. The area of the biopsy was shaved using electric clippers and scrubbed using either Chlorhexidine or Povidone-Iodine solutions. […]

[7] = system: hyaluronan; assay: Hyaluronan staining of BxPC3 tumor sections; type: in vivo, human (xenograft in athymic female nude mice); conditions: Day 18, dexamethasone low or high dose, PEGPH20 4.5 mg/kg, or both
Method: as §1, with “9B.1” for “9A.1”, “18” for “14”
as §2

[8] = system: PC3 prostate carcinoma cell line; conditions: 157,500 Units/kg (about 4.5 mg/kg) IV Q3Dx5; cited from earlier work
[9] = single 50 μg/kg dose, individual patients 1 and 2

B1: PEGPH20 (protein)
chain: LNFRAPPVIPNVPFLWAWNAPSEFCLGKFDEPLDMSLFSFIGSPRINATGQGVTIFYVDRLGYYPYIDSITGVTVNGGIPQKISLQDHLDKAKKDITFYMPVDNLGMAVIDWEEWRPTWARNWKPKDVYKNRSIELVQQQNVQLSLTEATEKAKQEFEKAGKDFLVETIKLGKLLRPNHLWGYYLFPDCYNHHYKKPGYNGSCFNVEIKRNDDLSWLWNESTALYPSIYLNTQQSPVAATLYVRNRVREAIRVSKIPDAKSPLPVFAYTRIVFTDQVLKFLSQDELVYTFGETVALGASGIVIWGTLSIMRSMKSCLLLDNYMETILNPYIINVTLAAKMCSQVLCQEQGVCIRKNWNSSDYLHLNPDNFAIQLEKGGKFTVRGKPTLEDLEQFSEKFYCSCYSTLSCKEKADVKDTDAVDVCIADGVCIDAFLKPPMETEEPQIFY
HA catabolite levels over a week ([1]; 0.5 μg/kg to 1.5 μg/kg, 12 patients): increased in a dose-dependent manner | plasma concentrations of hyaluronan ([1]; single 50 μg/kg dose): increased significantly | complete resolution of musculoskeletal observations post-dose ([2]; PEGPH20 0.3 mg/kg IV alone): approximately 72 hours | onset of musculoskeletal observations post-dose ([2]; PEGPH20 0.3 mg/kg IV alone): approximately 10 hours | musculoskeletal observations ([2]; PEGPH20 11400 Units/kg (0.3 mg/kg) IV alone): moderate to severe musculoskeletal observations | time course of plasma concentrations ([3]; 0.5 μg/kg to 1.5 μg/kg): concentrations fell below the limit of quantification (BQL) during the first day | plasma concentrations after dosing ([3]; 0.5 μg/kg to 1.5 μg/kg, twelve patients): ≤ 1.5 U/mL | CL [3, 9]: 2.44 mL/h/kg and 3.29 mL/h/kg | V1 (mL/kg), volume of the central compartment [3, 9]: 57.96 mL/kg and 55.93 mL/kg | t1/2α (hr), distribution half-life [3, 9]: 4.77 h and 2.47 h | plasma enzyme at 72 hours after administration ([3]; single IV dose 50 μg/kg): < 2 U/mL | plasma enzyme initially following administration ([3]; single IV dose 50 μg/kg): approximately 30 U/mL | terminal half-life ([3]; single IV dose 50 μg/kg): approximately 2 days | plasma half life ([3]; single IV dose 50 μg/kg, two patients): 28 to 48 h | pericellular hyaluronan staining of tumor sections [4]: almost completely absent | reaction immediately post-dose after a break in dosing ([5]; 3040 Units/kg IV on Day 17, 26 or 33): systemic anaphylactoid-like reaction | musculoskeletal effects after re-dose ([5]; 3040 Units/kg IV on Day 59, antibody-positive dogs): No musculoskeletal effects were observed | musculoskeletal responses, repeat daily dosing ([5]; Day 7 through Day 9, 3800 to 15200 Units/kg): No musculoskeletal responses were observed | musculoskeletal responses, repeat daily dosing ([5]; Day 12, 60800 Units/kg (1.6 mg/kg), dog 288 IV): reduced mobility 2 hours after the 60800 Units/kg (1.6 mg/kg) dose with complete recovery within 10 hours post-dose | musculoskeletal responses, repeat daily dosing ([5]; Days 4 through 6, 1520 to 3040 Units/kg, IV or SC): reduced mobility (reduced ability to walk or stand), overall decreased activity, and muscle stiffness in the neck, back and extremities upon palpation; also recorded: the severity of the responses decreased from Day 4 to Day 6 | resolution of musculoskeletal responses ([5]; single dose 3040 U/kg on Day 1, three dogs): ≤ 4 days | time of musculoskeletal response post-dose ([5]; single dose 3040 U/kg, IV or SC, three dogs): ≤ 23 h | musculoskeletal observations ([5]; single dose 3040 Units/kg (0.08 mg/kg), IV or SC): reduced mobility (reduced ability to walk or stand) and tighness of muscles of the neck, back and extremities upon palpation; also recorded: reduced mobility (reduced ability to walk or stand), overall decreased activity, and muscle stiffness in the neck, back and extremities upon palpation | musculoskeletal observations on the following day ([5]; single dose of either 0.08 mg/kg or 0.3 mg/kg): reduced walking ability, difficulty standing, decreased activity and tightness of the muscles of the neck, back and extremities | hyaluronan staining of skeletal muscle ([6]; 24 h after Day 59 dose, antibody-positive dogs): did not remove extracellular hyaluronan in skeletal muscle samples | hyaluronan staining, post-treatment skeletal muscle and skin ([6]; 24 h after first IV dose, PEGPH20 0.3 mg/kg alone, or 0.3 / 1.0 mg/kg + dexamethasone 4 mg BID): virtually no hyaluronan staining | hyaluronan staining of tumor sections [7]: almost completely absent | histopathologic changes of knee joint or skeletal muscle (IV twice weekly, 4 weeks): no associated histopathologic changes | clinical signs (monkeys administered PEGPH20): hypoactivity, lethargy, disorientation, hunched posture and a decrease in limb joint angle | xenograft tumor growth inhibition, previously shown [8]: 34-70%

— US9878046B2, “Adverse side-effects associated with administration of an anti-hyaluronan agent and methods for ameliorating or preventing the side-effects” (Halozyme, Inc., priority 2010, dated 2018)
